Results: the nanobody polyreactivity screen of Harvey et al. (2022)

Experiment: yeast display, Sf9 membrane polyspecificity reagent, FACS + sequencing; frameworks hold sequencing errors
Procedure, shortened: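 In a synthetic yeast display library (Saccharomyces cerevisiae BJ5465), nanobody expression was induced with galactose for 36–48 hours. FACS gates were set low and high (top ~1%) using anti-HA fluorescence for expression and streptavidin fluorescence for binding of the Sf9 membrane reagent. Each polyreactivity label is drawn from the gate of origin.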

Sequence	polyreactivity (PSR sort gate)
QVQLVESGGGLVQARGSLRLTCAASGYIFSAYAMGWYRQAPGKERELVAAISRGGSTKYADSVKGRFTISRDNAKNTVSLQMNSVKPEDPAVYDCATVVYHRRPPRTGHEYWGQGTQVTVSS	high polyreactivity
QVQLVESGGGLVQARGTLRLSCAASGFTVFSYAMGWYRQAPGKESELVASISGSSSTYYADSVKGRFTISRDNAKNTVSVQMNSLTPDDTAVYYCAVDYHQAWPSGDYWFEYDYWGQGTQVTVSS	low polyreactivity
QVQLVESGGGLVQARRSLRLSCAASGITFVFYTMGWYRQAPGKERELVAAITSSGVRTSYADSVKGRFTISRDNAMNTVYLQMNSLKPEDTAVYYCAAKPTYVHKPGYNYWGQGTQVTVSS	high polyreactivity
QVQLVESGGGLVQARRSLRLSCAASGSTFVGNTMGWYRQAPGTERELVAAISRRGGGTNYADSVKGRFTISRDNAKNTVYLQMNSLKPEDTAVYYCAAKLVYPGKFNYWGQGTQVTVSS	high polyreactivity
QVQLVESGGGLVQARVSLRLSCPASGRIFARYALGSSRQAPGTEREFVAAISRGGSTKYADSEKGRFTISRDNAKNTVYLQMNSLKPEDTAVYYCARQLWGSAYGAYYAGDYWGQGTQVTVSS	low polyreactivity
QVQLVESGGGLVQARVSLRLSSAASGFIIYPYVMGWYRQAPGKERELVATIRTDGRTSYADSVKGRFTISRDNAKNTFYLQMNSLKPEDTAVYYCDARSPLYYIVPYELVQYDYWGLGTQVTVSS	high polyreactivity
QVQLVESGGGLVQAVGSLLLSCAASGSTFRYNAMGWYRQAPGKEREFVATISWTTGSSYYADSVKGRFTISRDNAKNTVYLQLNSLKPEDTAFYFCAADASLFSDFRDYDYWGQGTQVPVSS	low polyreactivity
QVQLVESGGGLVQAVGSLRLSCAASGFIFVRYAMGWYRQAPAKERELVAAISYSGGSTYYADSVKGRFTISRDNAKNTVYLQMNSLKPEDTAVYYCAAEYYSGGYRYYAEYGYWGQGTQVTVSS	high polyreactivity
QVQLVESGGGLVQAVGSLRLSCAASGFISKYYAMGWYRQAPGKERELVASISRDGSTSYADSVKGRFTISRDNAKNTVYLQMNSLKPEDTAVYYCAAPSYRTRYYYWGQGTQVTVSS	high polyreactivity
QVQLVESGGGLVQAVGSLRLSCAASGGIITSSAMGWYRLAPGKEWELVAAITGIGGRTYYADSVKGRFTISRDNAKNTVYLQMNSLKPEDTAVYYCKAAYTYVTAWYYYCGQGTQVTVSS	high polyreactivity
QVQLVESGGGLVQAVGSLRLSCAASGITFRWYTMGWYRQAPGKERELVASIRYGGGSTYYADSVKGRFTISRDNAKNTVYLQMNSLKPEDTAVYYCDAESAWTSPYDYWGQGTQVTVSS	high polyreactivity
QVQLVESGGGLVQAVGSLRLSCAASGLTFYSNAMGWYRQAPGKERELVATISQDGGRTYYADSVKGRFTISRDNAKNTVYLQMNSLKPEDTAVYYCAKDLYHTVGRYDYWGQGTQVTVSS	low polyreactivity
QVQLVESGGGLVQAVGSLRLSCAASGNIFHRNAMGWYRQAPGKEMELVAAISWSGGSTYYADSVKGRFTISRDNAKNTVYLQMNSLKPEDTAVYFCNAYYYYRFKPSHPGLRSYYWGQGTQVTVSS	high polyreactivity
QVQLVESGGGLVQAVGSLRLSCAASGRTFAFYTMGWYRPAHGKERELVAAINWSGTRTYYADSVKGRVTISRDKAKNTVYLQMNSLKPEDTAVYYCNVAFFSLSLRTLGVEYWGQGTQVTVST	high polyreactivity
QVQLVESGGGLVQAVGSLRLSCAASGSIFLLYDMGWYRPAPGKERELVAAITWSGGSTYYADSVKGRFTISRDNAKNTVYLQMNSLKPEDTAVYYCAADEPYPTAYEYWGQGTQVTVSS	low polyreactivity
QVQLVESGGGLVQAVGSLRLSCAASGSTFGKNAMGWYRQAPGKERELVAAISTSGTRSFYADSVKGRFTISRDTAKNTVYLQMNSLKPEDTAVYYCNAGRSSRAYYYWGQGTQVTVSS	high polyreactivity
QVQLVESGGGLVQAVGSLRLSCAASGSTTFYAMGSYRQAPRKEWELVATISSSAGSTYYADSVKGRFTISRDNAKNTVFFQMNSLKPEDTAVFYCNAADAVSDYPDFHIYDYWGQGTQVTVSS	low polyreactivity
QVQLVESGGGLVQAVGSLRLSCAASGTFARYAMGWYRQGPGKERELVAAISSRGGSTYYADSVKGRFTISRDNAENTVYLQMNSLKPEDTAVYYCAAAHQYYPEYYYWGQGTQVTVSS	high polyreactivity
QVQLVESGGGLVQAVGSLRLSCAPSGSTFFKYARGWYRQAPGKERELVAVITRSGGTTYYADSVKGRFTISRDNAKNTVYLLMNSLKPEDTAVYYCAAGYYQYHRGYPTFTRYDYWGQGTQVTVSS	high polyreactivity
QVQLVESGGGLVQAVVSLRLSCAASGGTITSYAMVSSRQAPGKERELVAAITRSGGSTYYADSVKGRFTISRDNAKNTVYLQMKSLKPEDTAVYYCAARYWHSYGYWGQGTQVTVSS	high polyreactivity
QVQLVESGGGLVQEGGCLRLSCAASGSIFQGYAMGWYRQAPGKERELVAAITTDGDSTYYADSVKGRFTISRDNAKNTDYLEMNSLKPVDTAVYYCAADQDGRWEGSSEQGDSWGQGTQVTVSS	low polyreactivity
